{"source": "patent US20120083036A1", "about": "“POLYSACCHARIDE TRANSFERASE” (ADELAIDE RESEARCH AND INNOVATION PTY LTD, priority 2006, published 2012)", "key": {"[1]": {"target": "T1, HvXET5 (Hordeum vulgare, UniProt P93668)", "test": "pH optimum and enzyme stability of HvXET5", "type": "biochemical, barley (Hordeum vulgare L., cv. Clipper)", "protocol": "The effect of pH on the activity of HvXET5 was determined by incubating 1 nM HvXET5 at 30° C. for 60 min in 50 mM citric acid/100 mM sodium dihydrophosphate (McIlvaine) buffers, pH 4.0-8.5 in the presence of 0.02% (w/v) BSA. […] The thermal stability of HvXET5 was determined after 15 min incubation at 0-70° C. The freeze/thaw stability of HvXET5 at 1 nM concentration was determined after three cycles of freezing (−80° C.) and thawing (4° C.), each of 3 min duration. Activity was subsequently measured at 30° C. in 100 mM ammonium acetate buffer, pH 6, containing 5 mM calcium chloride, without and with the addition of 10% (v/v) glycerol. Enzyme activity was determined radiometrically as specified above, and expressed as % activity relative to maximal activity. Assays were performed in triplicate and standard errors of 8-14% were observed."}, "[2]": {"target": "T1, HvXET5", "conditions": "1 nM HvXET5, pH 6", "protocol": "The effect of Ca^2+ (as calcium chloride) and Mg^2+ (as magnesium sulfate), both in 0-15 mM concentration ranges, and of EDTA in a 0-20 mM concentration range, were determined by incubating 1 nM HvXET5 in 100 mM succinate buffer, pH 6. Enzyme activities were determined radiometrically as specified above, in triplicate and with a standard error of 8-10%."}, "[3]": {"substrate": "OC[C@@H](O)[C@@H](O[C@@H]1O[C@H](CO[C@H]2OC[C@@H](O)[C@H](O)[C@H]2O)[C@@H](O[C@@H]2O[C@H](CO[C@H]3OC[C@@H](O)[C@H](O)[C@H]3O)[C@@H](O[C@@H]3O[C@H](CO[C@H]4OC[C@@H](O)[C@H](O)[C@H]4O)[C@@H](O)[C@H](O)[C@H]3O)[C@H](O)[C@H]2O)[C@H](O)[C@H]1O)[C@H](O)[C@@H](O)CO", "test": "Km and kcat constants of HvXET5", "type": "biochemical, barley (Hordeum vulgare L., cv. Clipper)", "conditions": "other: acceptor substrate"}, "[4]": {"target": "T1, HvXET5", "test": "Radiometric activity assay of HvXET5 with TXG and [3H]-labelled XXXGol", "type": "biochemical, barley (Hordeum vulgare L., cv. Clipper)", "conditions": "purified enzyme; 30° C., pH 6.0, 0.3% (w/v) TXG", "protocol": "The activity of HvXET5 during enzyme purification was determined radiometrically at 30° C. in 100 mM succinate or ammonium acetate buffers, pH 6.0, containing 5 mM calcium chloride, 0.3% (w/v) TXG and [^3H]-labelled xyloglucan-derived saccharide heptaitol (XXXGol, specific radioactivity 83 MBq·μmol^−1) (Fry, et al., Biochem. J. 282, 821-828, 1992) with approximately 30,000 dpm per reaction mixture. The radioactivity incorporated in reaction products was counted on 2×1 cm Whatman chromatography 3MM paper strips in plastic vials and using LSC6500 Scintillation counter (Beckman, Fullerton, USA) with approximately 48% efficiency for tritium, using EcoLume scintillation fluid, and with 70% quenching. Enzyme activity of HvXET5 during purification is expressed in katals, where 1 kat represents 1 mol of product formed per s; specific activity is expressed in pkat·mg^−1 protein."}, "[5]": {"conditions": "concentrations between 5 and 15 mM"}}, "note": "“Also recorded” adds a separate entry of the source. Where two headings read alike, the source gives them in different places."}
{"molecule": "OCC(O)CO", "note": "[glycerol]", "values": [{"measurement": "Effect on HvXET activity after freeze-thawing cycles", "setting": "[1]; 10% (v/v) addition", "result": "no effect"}]}
{"molecule": "[Ca+2].[Cl-].[Cl-]", "note": "[Ca^2+, calcium chloride]", "values": [{"measurement": "Stimulation of HvXET5 activity", "setting": "[2]; [5]", "result": "7-8%"}]}
{"molecule": "ethylenediamine tetraacetic (disodium salt, dihydrate) [EDTA]", "values": [{"measurement": "Inhibition of HvXET5 activity", "setting": "[2]; 2-20 mM concentration ranges", "result": "approximately 30%"}]}
{"molecule": "O=S(=O)([O-])[O-].[Mg+2]", "note": "[Mg^2+, magnesium sulfate]", "values": [{"measurement": "Inhibition of HvXET5 activity", "setting": "[2]; [5]", "result": "3-4%"}]}
{"molecule": "HvXET5 (Hordeum vulgare) (protein) APPRKPVDVPFEKNYVPTWAEDHIHYVNGGREVQLSLDKTTGTGFQTRGSYLFGHFSMHIKLVGGDSAGTVTAFYLSSQNSEHDEIDFEFLGNRTGQPYILQTNVFSGGKGDREQRIYLWFDPTKDYHSYSVLWNLYMIAFFVDDTPIRVFKNSKDLGVRYPFDQPMKLYSSLWNADDWATRGGREKTDWSKAPFVASYRGFHVDGCEASAEAKLCATQGARWWDQPEFQDLDAAQYRRLAWVRKEHTIYNYCTDRERYAAMSPECKRDRDV", "values": [{"measurement": "Km", "setting": "[3]", "result": "69·10^−6 M"}]}
{"molecule": "HvXET5: barley xyloglucan xyloglucosyl transferase (XET isoenzyme) purified from extracts of 7-day-old barley seedlings (protein, Hordeum vulgare, barley xyloglucan xyloglucosyl transferase (XET isoenzyme) purified from extracts of 7-day-old barley seedlings) MKATAGALLAVVATVLLRGIAAAPPRKPVDVPFEKNYVPTWAEDHIHYVNGGREVQLSLDKTTGTGFQTRGSYLFGHFSMHIKLVGGDSAGTVTAFYLSSQNSEHDEIDFEFLGNRTGQPYILQTNVFSGGKGDREQRIYLWFDPTKDYHSYSVLWNLYMIAFFVDDTPIRVFKNSKDLGVRYPFDQPMKLYSSLWNADDWATRGGREKTDWSKAPFVASYRGFHVDGCEASAEAKLCATQGARWWDQPEFQDLDAAQYRRLAWVRKEHTIYNYCTDRERYAAMSPECKRDRDV", "values": [{"measurement": "Specific activity", "setting": "[4]", "result": "3,630 pkat·mg^−1"}, {"measurement": "Activity at 0° C. relative to activity observed at 30° C.", "setting": "[1]; 0° C.", "result": "approximately 40%"}, {"measurement": "pH optimum", "setting": "[1]; 30° C., McIlvaine buffers pH 4.0-8.5", "result": 6.0}, {"measurement": "Freeze/thaw stability", "setting": "[1]; several freeze-thaw cycles", "result": "did not lose activity"}, {"measurement": "Storage stability (retention of activity)", "setting": "[1]; stored at −20° C.", "result": "retained its activity for at least a year; also recorded: remained more or less constant for at least a year"}, {"measurement": "Effect of buffer ionic strength on activity", "setting": "[1]; succinate, ammonium acetate or sodium phosphate buffers, each at 50-200 mM", "result": "unaffected"}]}
